Assay results from patent publication US20250066476A1 (TENEOONE, published 2025).

Columns and labels:
[1] = target: T1, human B-cell maturation antigen (BCMA) (human, UniProt Q02223 1-54, limits assumed); assay: ELISA protein and cell-binding assays
T1 construct: also called CD269; TNFRSF17
T1 sequence (looked up): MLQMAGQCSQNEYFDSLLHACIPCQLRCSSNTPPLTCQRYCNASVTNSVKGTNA

[2] = target: T2, human PSMA (Prostate Specific Membrane Antigen, Glutamate Carboxypeptidase II) (human, UniProt Q04609 1-750); assay: flow cytometry on LNCaP cells
T2 construct: whole, on cells; the cell line is named under assay; also called FOLH1
Method: Briefly, 50,000 target cells were stained with a dilution series of purified UniAbs™ for 30 minutes at 4° C. Following incubation, the cells were washed twice with flow cytometry buffer (1×PBS, 1% BSA, 0.1% NaN₃) and stained with goat F(ab′)₂ anti-human IgG conjugated to R-phycoerythrin (PE) (Southern Biotech, cat. #2042-09) to detect cell-bound antibodies. After a 20-minute incubation at 4° C., the cells were washed twice with flow cytometry buffer and the mean fluorescence intensity (MFI) was measured by flow cytometry. The MFI of cells stained with secondary antibody alone were used for determination of background signal and binding of each antibody was converted to fold over background. Binding to cynomolgus PSMA positive cells was determined using the same protocol with the following modifications: the target cells were from Freestyle 293-F cells (ThermoFisher R79007) transiently transfected to express the extracellular domain of cynomolgus PSMA. In some experiments EC50 values were calculated using GraphPad Prism 7.
Column 1 indicates the clone ID of the HCAb. Column 2 indicates binding to LNCaP cells measured as fold over the background MFI signal.

T2 sequence (Q04609 whole entry): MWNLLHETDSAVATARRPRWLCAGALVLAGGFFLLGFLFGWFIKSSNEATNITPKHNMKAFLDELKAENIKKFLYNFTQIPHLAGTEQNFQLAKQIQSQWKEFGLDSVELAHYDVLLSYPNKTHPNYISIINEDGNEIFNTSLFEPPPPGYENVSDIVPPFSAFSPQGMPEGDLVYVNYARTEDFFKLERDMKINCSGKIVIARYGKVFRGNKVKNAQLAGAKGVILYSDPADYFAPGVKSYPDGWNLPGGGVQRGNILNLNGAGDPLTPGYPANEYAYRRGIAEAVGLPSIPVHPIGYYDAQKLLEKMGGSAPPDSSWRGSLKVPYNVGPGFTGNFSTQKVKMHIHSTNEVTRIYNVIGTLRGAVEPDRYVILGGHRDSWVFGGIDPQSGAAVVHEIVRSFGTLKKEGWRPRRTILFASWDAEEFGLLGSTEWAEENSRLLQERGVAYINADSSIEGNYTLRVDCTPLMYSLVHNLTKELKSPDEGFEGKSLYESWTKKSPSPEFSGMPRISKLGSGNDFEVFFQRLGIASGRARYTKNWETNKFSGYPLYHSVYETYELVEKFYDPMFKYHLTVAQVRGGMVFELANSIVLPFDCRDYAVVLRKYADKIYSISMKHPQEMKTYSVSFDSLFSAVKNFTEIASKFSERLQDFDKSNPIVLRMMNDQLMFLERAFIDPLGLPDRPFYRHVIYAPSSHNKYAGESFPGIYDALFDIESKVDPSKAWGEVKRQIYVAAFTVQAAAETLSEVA

B1: anti-BCMA heavy chain antibody clone ID 308837 (antibody, V domains shown)
VH: EVQLLESGGGLVQPGGSLRLSCAASGFTVSSYGMSWVRQAPGKGPEWVSGIRGSDGSTYYADSVKGRFTISRDNATNTLYLQMNSLRAEDTAVYYCAKQGGNDGPFDYRGQGTLVTVSS
notes: heavy chain-only antibody (UniAb)
B1: binds [1].

B2: anti-BCMA heavy chain antibody clone ID 308912 (antibody, V domains shown)
VH: EVQLLESGGGLVQPGGSLRLSCAASGFTVSSYGMSWVRQPPGKGMEWVSGIRGSDGSTYYADSVKGRFTISRDNAKNTLYLQMNSLRAEDTAVYYCAKQGGNDGPFDYRGQGTLVTVSS
notes: as for B1
B2: binds [1].

B3: anti-BCMA heavy chain antibody clone ID 308806 (antibody, V domains shown)
VH: EVQLLESGGGLVQPGGSLRLSCAASGFTISSYGMSWVRQAPGKGVEWVSGIRGSDGTTYYADSVKGRFTISRDSSRNTLYLQMNSLRAEDTAVYYCAKQGGNDGPFDHRGQGTLVTVSS
notes: as for B1
B3: binds [1].

B4: anti-BCMA heavy chain antibody clone ID 308902 (antibody, V domains shown)
VH: EVQLLESGGGLVQPGGSLRLSCAASGFTVSSYGMSWVRQAPGKGPEWVSGIRGSDGSTYYADSVKGRFTISRDNSKNTLYLQMNSLRAEDTAVYYCAKQGENDGPFDHRGQGTLVTVSS
notes: as for B1
B4: binds [1].

B5: anti-BCMA heavy chain antibody clone ID 308636 (antibody, V domains shown)
VH: EVQVLESGGGLVQPGGSLRLSCAASGFTVSSYGMSWVRQPPGKGMEWVSGIRGSDGSTFYADSVKGRFTISRDNATNTLYLQMNSLRAEDTAVYYCAKQGGNDGPFDYRGQGTLVTVSS
notes: as for B1
B5: binds [1].

B6: anti-BCMA heavy chain antibody clone ID 308635 (antibody, V domains shown)
VH: EVQLLESGGGLVQAGGSLRLSCAASGFTVSSYGMSWVRQAPGKGPEWVSGIRGSDGSTYYADSVKGRFTISRDNSKNTLYLQMNSLRAEDTAVYHCAKQGENDGPFDYRGQGTLVTVSS
notes: as for B1
B6: binds [1].

B7: anti-PSMA heavy-chain antibody clone ID 345505 (antibody, V domains shown)
VH: QVQLVESGGGVVQPGRSLRLSCAASGFTFISYGMHWVRQAPGKGLEGVAVIWYDGSNRYYADSVKGRFTISRDNSKNTLYLQMNSLRAEDTAVYYCAREPRIGYYYESSGYYSLDYRGQGTLVTVSS
notes: heavy chain-only antibody (UniAb/HCAb)
For B7, the “fold over the background MFI signal” value [2] was 59 fold over background MFI.

B8: anti-PSMA heavy-chain antibody clone ID 325932 (antibody, V domains shown)
VH: QVQLVESGGGVVQPGRSLRLSCAASGFSFSSYGMHWVRQAPGKGLEGVAVIWYDGSNRYYADSVKGRFTISRDNSKNTLYLQMNSLRAEDTAVYYCAREPRIGYYYESSGYYSLDYRGQGTLVTVSS
notes: as for B7
With B8 the “fold over the background MFI signal” value [2] was 64 fold over background MFI.

B9: anti-PSMA heavy-chain antibody clone ID 345509 (antibody, V domains shown)
VH: QVQLVESGGGLVQPGGSLRLSCAASGFSFSSYGMHWVRQAPGKGLEGVAVIWYDGSNKYYADSVKGRFTISRDNSKNTMYLQMNSLRAEDTAVYYCAREPRIGYYYESSGYYSLDYRGQGTLVTVSS
notes: as for B7
In the case of B9, the “fold over the background MFI signal” value [2] is reported as 37 fold over background MFI.

B10: anti-PSMA heavy-chain antibody clone ID 345510 (antibody, V domains shown)
VH: QVQLVESGGGVVQPGRSLRLSCAASGFSFSSYGMHWVRQAPGKGLEWVAVIWYDGSNKYYADSVKGRFTISRDNSKNTMYLQMNSLRAEDTAVYYCAREPRIGYYYESSGYYSLDYRGQGTLVTVSS
notes: as for B7
B10 was tested, and the “fold over the background MFI signal” value [2] was 13 fold over background MFI.

B11: anti-PSMA heavy-chain antibody clone ID 345508 (antibody, V domains shown)
VH: QVQLVESGGGVVQPGRSLRLSCAASGFSFSSYGMHWVRQAPGKGPEWVAVIWYDGSNRYYADSVKGRFTISRDNSKNTLYLQMNSLRAEDTAVYYCAREPRIGYYYESSGYYSLDYRGQGTLVTVSS
notes: as for B7
For B11, the “fold over the background MFI signal” value [2] was 55 fold over background MFI.
